Source: the supplement of paper PMC10567573
± gives the standard deviation.

Test: protein stability index of a GFP-peptide fusion (GPS, HEK-293T) (PSI 1-6); higher = more stable
Conditions: c terminus: a fixed tail appended
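Further: 24-mer peptide tiles fused after GFP, lentivirally expressed, FACS-sorted into six equal bins by GFP/DsRed ratio, decoded by Illumina sequencing, PSI is the read-weighted mean bin number.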

Sequence	protein stability index (treatment: DMSO)	protein stability index (treatment: MLN4924 1 uM, 8 h)
ASRVSKVNDKRRKKSGEKEQHISK [KMT2E]	4.69 ± 0.39	4.45 ± 0.38
YESEILPSTPNPQPPSCQGEAAGS [DUSP5]	5.24 ± 0.13	5.296 ± 0.002
VIVQLHKLRHLDISRDRLSSYYKF [ZER1]	2.76 ± 0.63	2.56 ± 0.45
DVLSCEYYSPILDQWTPIAAMLRG [KLHL13]	2.2 ± 0.46	2.36 ± 0.23
VVQDSVNISGHTNTNTLKVPECRL [SPOPL]	3.34 ± 0.25	3.56 ± 0.43
VPDSDIKALTTLCDLADRELVVII [ESRRG]	2.53 ± 0.38	2.6 ± 0.45
GVPQIWEKIHEMVKKNSAKSMGLK [ACSBG2]	2.09 ± 0.21	2.53 ± 0.046
SVNISLDNLLPGMQPSKPQQPSLN [CLINT1]	3.4 ± 0.23	3.51 ± 0.16
ARDCFATGRHYWEVDVQEAGAGWW [TRIM14]	2.42 ± 0.22	2.41 ± 0.3
EARSLEHTLPVNRETLKRKVSGNR [ESR2]	4.95 ± 0.27	5.16 ± 0.2
EPREFSSRNFGVRNQGNFSVVGTV [ZC2HC1C]	3.06 ± 0.31	3.01 ± 0.24
PFSECGEAVSDSTPFLTNHGAHKA [ZNF263]	4.76 ± 0.24	4.93 ± 0.32
KLVVHDCPVWDIFDSDWYTSRNLI [RHOBTB3]	2.62 ± 0.43	2.66 ± 0.18
LVVLVVAVVASSVNSYYSSPAQQV [TOR1AIP2]	3.22 ± 0.11	3.21 ± 0.23
KPAEYGYVSLGRLGAAKGALHPGC [CEBPB]	2.94 ± 0.11	3.06 ± 0.32
HYAVNSQFTMGGPAISMASPMSIP [CARM1]	2.63 ± 0.21	2.78 ± 0.24
ARQLQLSDPQTVAGAFGYFQQDTK [LPCAT4]	3.82 ± 0.41	3.9 ± 0.16

Sequence	protein stability index (treatment: DMSO)	protein stability index (treatment: MLN4924 1 uM, 8 h)
FLKEYFPIEVVTEGLLNTYQELLG [NLN]	2.44 ± 0.51	2.52 ± 0.55
LKHQTVYRLLKCAPRGKNGFTPLH [FEM1A]	2.71 ± 0.69	2.39 ± 0.57
FNEMSAQGLRPRTVSSPIPYTPSP [CCDC6]	4.02 ± 0.3	4.12 ± 0.23
LKTFVKQTDHIKGIRQITSDDFCT [GFOD1]	3.29 ± 0.4	3.26 ± 0.23
PADIQAQFAISRELIRNIYNSFHK [SNX8]	2.04 ± 0.29	2.24 ± 0.3
EMSLPEVQKDKYPEEFSLLKLQTK [SPATS1]	4.29 ± 0.28	4.04 ± 0.34
EVIPYTPAMQRYVKRLHEVGRTEP [HMOX1]	3.18 ± 0.21	3.41 ± 0.25
DETIGFEDILNDPSQSEVMGEPHL [POMP]	5.5 ± 0.15	5.46 ± 0.086
NGFTPLHFAAASTHGALCLELLVN [ANKRD44]	3.06 ± 0.71	2.95 ± 0.9
LEPSTPYRFLLYGLHEGKRLGPLS [TNXB]	2.44 ± 0.3	2.46 ± 0.15
PLHNSGLLSLDPVQDKTPLYSQLL [MED27]	2.76 ± 0.27	2.92 ± 0.34
GLVYRIHSVLQGFIPLFQKFRLTG [TMEM40]	3.03 ± 0.56	2.73 ± 0.37
VLKTRFSYAFPKEFPYRMNHILEC [CCNC]	2.59 ± 0.58	2.2 ± 0.24
DVKKEKLSPDIMKDAYVQKLVKVC [TENT5D]	2.94 ± 0.52	3.1 ± 0.076
GIRKEDLDIVCERFTTSKLQSFED [MLH1]	3.6 ± 0.22	–
VARSGTPAVENKQQIGDAIRMIVR [PLK2]	3 ± 0.22	3.09 ± 0.23
